# Experimental data as given in patent US20140370037A1 (published 2014).
# T1: human DLL3 antigen (human, UniProt Q9NYJ7 27-492, limits assumed)
# T1 construct: also called immobilized human DLL3; recombinant human DLL3
# T1 sequence (looked up): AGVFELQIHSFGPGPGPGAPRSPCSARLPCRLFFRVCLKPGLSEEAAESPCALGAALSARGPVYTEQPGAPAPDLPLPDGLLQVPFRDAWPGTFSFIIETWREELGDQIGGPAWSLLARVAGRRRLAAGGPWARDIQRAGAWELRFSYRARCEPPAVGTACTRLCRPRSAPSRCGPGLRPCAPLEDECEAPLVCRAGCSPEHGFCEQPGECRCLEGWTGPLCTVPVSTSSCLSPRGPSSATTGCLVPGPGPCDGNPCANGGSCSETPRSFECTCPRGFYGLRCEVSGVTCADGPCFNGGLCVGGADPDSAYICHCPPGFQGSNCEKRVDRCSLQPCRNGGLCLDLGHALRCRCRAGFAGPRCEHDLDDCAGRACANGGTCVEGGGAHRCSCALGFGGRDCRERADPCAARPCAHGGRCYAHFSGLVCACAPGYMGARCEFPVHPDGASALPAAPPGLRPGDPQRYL
# Biological target: T1, human DLL3 antigen
# Assay: ELISA or flow cytometry screen
row,Binder,binding result
1,"SC16.117 (antibody, V domains shown, murine mAb) VH: QVQLKESGPGLVAPSQSLSIPCTVSGFSLTNYGVHWVRQPPGKGLEWLGVIWAGGITNYNSALMSRLSISEDNSKSQVFLKMNSLQTDDTAMYYCARNLGPYAMDYWGQGTSVTVSS VL: DIQMNQSPSSLSASLGDTITITCHVSQNINVWLSWYQQKPGNIPKLLIQKASNLHTGVPSRFSGSGSGTGFTLTISSLQPEDIATYYCQQGQSYPFTFGSGTKLEIK",binds
2,"SC16.11 (antibody, V domains shown, murine mAb) VH: QIQLVQSGPELKKPGETVKISCKASGYTFTDYSMHWVKQAPGKGLKWMGWINTETVEPTYADDFMGRFAFSLETSASTAFLQINNLENEDTATYFCARFGSYAMDYWGQGTSVTVSS VL: not shown",binds
3,"SC16.10 (antibody, V domains shown, murine mAb) VH: QVTLKESGPGILQSSQTLSLTCSFSGFSLSTSGMGVGWIRQPSGKGLEWLAHIWWDDVKRYNPVLKSRLTISKDTSSSQVFLKIASVDTADTATYYCARLVDDLYYFDYWGQGTTLTVSS VL: QIVLTQSPAIMSASLGERVTMTCTASSSVSSSYLHWYQQKPGSSPKLWIYSTSNLASGVPTRFSGSGSGTSYSLTISSMEAEDAATYYCHQYHRSPFTFGSGTKLEIK",binds
4,"SC16.123 (antibody, V domains shown, murine mAb) VH: QVALKESGPGILQPSQTLSLTCSFSGFSLSTSGMGVGWIRQPSGKGLEWLAHIWWDDVKRYNPALKSRLTISKDTSSSQVFLKIASVDTADTATYYCARMEDYGSSSYFDFWGHGTTLTVSS VL: QIVLTQSPAIMSASLGERVTMTCTASSSVSSSYLHWYQQKPGSSPKLWIYSTSNLASGVPARFSGSGSGTSYSLTISSMETEDAATYYCHQYHRSPFTFGSGTKLEIK",binds
5,"SC16.122 (antibody, V domains shown, murine mAb) VH: EVQLVESGGGLVKPGGSLKLSCAASGFTFSDYYMFWVRQTPEKRLEWVATISDGGSYTYFPDSVKGRFTISRDNAQNNLYLQMSSLKSEDTAMYYCARAGTLYAMDYWGQGTSVTVSS VL: DIVMTQSQKFMSTSVGDRVSVTCKASQNVGTNVAWYQQKPGQSPKVLIYSASYRYSGVPDRFTGSGSGTDFTLTISNVQSEDLAEFFCQQYNSYPLTFGGGTKLEIK",binds
6,"SC16.118 (antibody, V domains shown, murine mAb) VH: EVQLQQSGPDLVKPGASVKISCKASGYSFTGYYMHWVKQSHGKSLEWIGRVNPNNGGTSYNQKFKGKAILTADKSSSTAYMELRSLTSEDSAVYYCARGSYDYAEGWGQGTLVTVSA VL: DIVLTQSPASLAVSLGQRATISCKASQSVDYDGDSYLTWYQQKPGQPPKLLIYAASNLESGIPARFSGSGSGTDFTLNIHPVEEEDAATYYCQQSNEDPYTFGGGTKLEIKR",binds
7,"SC16.134 (antibody, V domains shown, murine mAb) VH: EVQLQQSGPDLVKPGASVKISCKASGYSFTGYYMHWVKQSHGKRLEWIGRVNPNNGGTNYNQKFKGKAILTVDKSSSTAYMELRSLTSEDSAVYYCARGSYDNAEGWGQGTLVTVSA VL: DIVLTQSPASLAVSLGQRATISCKASQSVDHAGDSYMNWYQQKPGQPPKLLIYAASNLESGIPARFSGSGSGTDFTLNIHPVEEEDAATYYCQQSNEDPYTFGGGTKLEIKR",binds
8,"SC16.121 (antibody, V domains shown, murine mAb) VH: EVQLVESGGGLVQPKGSLKLSCAASGFTFNTYAMNWVRQAPGKGLEWVARIRIKSNNYATYYADSVKDRFTISRDDSQNMLYLQMNNLKTEDTAVYYCVRQGYSYDWGPWFAYWGQGTLVTVSA VL: QIVLTQSPAIMSASPGEKVTITCSASSSVSYMHWFQQKPGTSPKLWIYSTSNLASGVPARFSGSGSGTSYSLTISRMEAEDAATYYCQQRSSYPPTFGGGTKLEIKR",binds
9,"SC16.114 (antibody, V domains shown, murine mAb) VH: EVQLQQSGAELVKPGASVKLSCTASGFNIKDTYIHWVKQRPEQGLEWIGRIDPANGNTKYDPKFQGKATITPDTSSNTAYLQLSSLTSEDTAVYYCARSWRNYGSSFWYFDVWGAGTTVTVSS VL: QIVLSQSPAILSASPGEKVTMTCRASSSVSYMHWYQQKPGSSPKPWIYATSNLASGVPARFSGSGSGTSYSLTISRVEAEDAATYYCQQWSSNPYTFGGGTKLEIKR",binds
